# Measured values reported in CN106866820A (AB-MAT MEDICINE TECH (SHANGHAI) CO LTD, dated 2017).
# T1: 人角蛋白18(CK18), on PC9 human lung cancer cells (human, UniProt P05783 2-430)
# T1 construct: whole, on cells; Endogenous CK18 on non-permeabilised PFA-fixed PC9 cells (IF) or live PC-9 cells (capture); also called human keratin 18; cytokeratin 18
# T1 sequence (looked up): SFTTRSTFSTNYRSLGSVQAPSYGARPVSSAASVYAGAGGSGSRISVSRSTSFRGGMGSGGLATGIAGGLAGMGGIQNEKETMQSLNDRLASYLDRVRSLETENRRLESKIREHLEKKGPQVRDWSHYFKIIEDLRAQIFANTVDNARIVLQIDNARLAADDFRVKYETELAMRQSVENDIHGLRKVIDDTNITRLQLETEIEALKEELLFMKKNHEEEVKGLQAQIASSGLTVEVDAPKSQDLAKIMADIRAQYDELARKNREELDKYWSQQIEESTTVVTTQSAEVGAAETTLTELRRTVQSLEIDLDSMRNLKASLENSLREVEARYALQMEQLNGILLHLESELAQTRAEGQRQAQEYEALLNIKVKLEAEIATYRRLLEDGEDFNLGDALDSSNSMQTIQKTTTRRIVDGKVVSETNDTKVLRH
# T2: 人角蛋白18(CK18), endogenous protein in PC9 cell lysate / membrane protein extract (human, UniProt P05783 2-430)
# T2 construct: Endogenous protein in lysate or extract; also called 48KD条带
# T2 sequence (looked up): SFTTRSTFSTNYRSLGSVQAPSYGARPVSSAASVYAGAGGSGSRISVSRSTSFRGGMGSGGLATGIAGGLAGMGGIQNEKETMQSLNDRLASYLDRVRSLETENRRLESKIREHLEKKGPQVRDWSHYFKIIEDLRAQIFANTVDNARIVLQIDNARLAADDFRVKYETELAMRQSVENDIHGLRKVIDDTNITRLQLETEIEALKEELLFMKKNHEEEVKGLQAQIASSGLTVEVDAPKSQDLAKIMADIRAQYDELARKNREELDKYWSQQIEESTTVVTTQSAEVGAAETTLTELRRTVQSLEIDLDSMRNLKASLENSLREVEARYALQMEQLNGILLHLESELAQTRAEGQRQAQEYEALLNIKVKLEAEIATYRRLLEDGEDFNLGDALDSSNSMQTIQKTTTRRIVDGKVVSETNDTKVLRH
# Columns and labels:
# [1] = molecular target: T1, 人角蛋白18(CK18), on PC9 human lung cancer …; assay: immunofluorescence on PFA-fixed non-permeabilised PC9 cells, antibody 1:1000, FITC goat anti-mouse secondary
# [2] = molecular target: T2, 人角蛋白18(CK18), endogenous protein in PC9 …; assay: Western blot on PC9 whole-cell lysate, antibody diluted 1:1000 and 1:2000
binder,measurement,setting,value
"anti-CK18(克隆号1P1)抗体 (antibody, V domains shown, also called anti-CK18 (clone 1P1); 克隆号1P1 anti-CK18抗体) VH: EVQLQESGPSLVKPSQTLSLTCSVTGDSFTSGYWNWIRKFPGNKLEYMGYISYSGNCYYNPSLKSRISITRDTSKNQYYLQMNSVTTEDTATYFCARASAYYYGSFYDYAMDYWGQGTSVTVSS VL: DIVMTQSQKFMSTSVGDRVSITCKASQNVDTAVAWYQQKPGQSPKLLIYSASNRFPGVPDRFTGSGSGTDFTLTISNMQSEDLADYFCQQYSSYPFTFGSGTKLEIK",binding result,[1],binds
same,binding result,[2],binds
